Experimental data from publication PMC12416549 (2024).

T1: TNFR1 (Homo sapiens, UniProt P19438)
T1 chain: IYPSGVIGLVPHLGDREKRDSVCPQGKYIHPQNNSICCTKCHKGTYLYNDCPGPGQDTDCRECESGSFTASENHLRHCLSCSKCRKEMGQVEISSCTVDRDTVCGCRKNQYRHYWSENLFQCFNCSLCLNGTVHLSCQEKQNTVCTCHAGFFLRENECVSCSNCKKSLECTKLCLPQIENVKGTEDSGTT


Target: T1, TNFR1
Experiment: yeast display SC50

apparent Kd (screen) | Binder
7.07 nM | E92S (designed binder) SMEEEVEKAAKEYEKKKKEAIEKHLEKLKAKDKEAAERFLKELEEAAKEYAKDEAKTMSEEEAKRRAKKYKEKVLLSELSEEEQKEIKEAESKLVRTILKYVEEAAK
0.446 nM | V102N (designed binder) SMEEEVEKAAKEYEKKKKEAIEKHLEKLKAKDKEAAERFLKELEEAAKEYAKDEAKTMSEEEAKRRAKKYKEKVLLSELSEEEQKEIKEAEEKLVRTILKYNEEAAK
5.84 nM | K18P (designed binder) SMEEEVEKAAKEYEKKKPEAIEKHLEKLKAKDKEAAERFLKELEEAAKEYAKDEAKTMSEEEAKRRAKKYKEKVLLSELSEEEQKEIKEAEEKLVRTILKYVEEAAK
0.49 nM | K23S (designed binder) SMEEEVEKAAKEYEKKKKEAIESHLEKLKAKDKEAAERFLKELEEAAKEYAKDEAKTMSEEEAKRRAKKYKEKVLLSELSEEEQKEIKEAEEKLVRTILKYVEEAAK
9.41 nM | L99Y (designed binder) SMEEEVEKAAKEYEKKKKEAIEKHLEKLKAKDKEAAERFLKELEEAAKEYAKDEAKTMSEEEAKRRAKKYKEKVLLSELSEEEQKEIKEAEEKLVRTIYKYVEEAAK
1.05 nM | E60Q (designed binder) SMEEEVEKAAKEYEKKKKEAIEKHLEKLKAKDKEAAERFLKELEEAAKEYAKDEAKTMSQEEAKRRAKKYKEKVLLSELSEEEQKEIKEAEEKLVRTILKYVEEAAK
0.446 nM | L75W (designed binder) SMEEEVEKAAKEYEKKKKEAIEKHLEKLKAKDKEAAERFLKELEEAAKEYAKDEAKTMSEEEAKRRAKKYKEKVWLSELSEEEQKEIKEAEEKLVRTILKYVEEAAK
1.54 nM | E62T (designed binder) SMEEEVEKAAKEYEKKKKEAIEKHLEKLKAKDKEAAERFLKELEEAAKEYAKDEAKTMSEETAKRRAKKYKEKVLLSELSEEEQKEIKEAEEKLVRTILKYVEEAAK
0.869 nM | S1V (designed binder) VMEEEVEKAAKEYEKKKKEAIEKHLEKLKAKDKEAAERFLKELEEAAKEYAKDEAKTMSEEEAKRRAKKYKEKVLLSELSEEEQKEIKEAEEKLVRTILKYVEEAAK
0.446 nM | V6P (designed binder) SMEEEPEKAAKEYEKKKKEAIEKHLEKLKAKDKEAAERFLKELEEAAKEYAKDEAKTMSEEEAKRRAKKYKEKVLLSELSEEEQKEIKEAEEKLVRTILKYVEEAAK
0.539 nM | E34Y (designed binder) SMEEEVEKAAKEYEKKKKEAIEKHLEKLKAKDKYAAERFLKELEEAAKEYAKDEAKTMSEEEAKRRAKKYKEKVLLSELSEEEQKEIKEAEEKLVRTILKYVEEAAK
15.2 nM | I98T (designed binder) SMEEEVEKAAKEYEKKKKEAIEKHLEKLKAKDKEAAERFLKELEEAAKEYAKDEAKTMSEEEAKRRAKKYKEKVLLSELSEEEQKEIKEAEEKLVRTTLKYVEEAAK

More lines, now with the values behind:

Binder | apparent Kd (screen)
R65G (designed binder) SMEEEVEKAAKEYEKKKKEAIEKHLEKLKAKDKEAAERFLKELEEAAKEYAKDEAKTMSEEEAKGRAKKYKEKVLLSELSEEEQKEIKEAEEKLVRTILKYVEEAAK | 0.956 nM
K71C (designed binder) SMEEEVEKAAKEYEKKKKEAIEKHLEKLKAKDKEAAERFLKELEEAAKEYAKDEAKTMSEEEAKRRAKKYCEKVLLSELSEEEQKEIKEAEEKLVRTILKYVEEAAK | 0.446 nM
A51D (designed binder) SMEEEVEKAAKEYEKKKKEAIEKHLEKLKAKDKEAAERFLKELEEAAKEYDKDEAKTMSEEEAKRRAKKYKEKVLLSELSEEEQKEIKEAEEKLVRTILKYVEEAAK | 12.5 nM
E72D (designed binder) SMEEEVEKAAKEYEKKKKEAIEKHLEKLKAKDKEAAERFLKELEEAAKEYAKDEAKTMSEEEAKRRAKKYKDKVLLSELSEEEQKEIKEAEEKLVRTILKYVEEAAK | 1.4 nM
E26Y (designed binder) SMEEEVEKAAKEYEKKKKEAIEKHLYKLKAKDKEAAERFLKELEEAAKEYAKDEAKTMSEEEAKRRAKKYKEKVLLSELSEEEQKEIKEAEEKLVRTILKYVEEAAK | 0.869 nM
L76T (designed binder) SMEEEVEKAAKEYEKKKKEAIEKHLEKLKAKDKEAAERFLKELEEAAKEYAKDEAKTMSEEEAKRRAKKYKEKVLTSELSEEEQKEIKEAEEKLVRTILKYVEEAAK | 0.653 nM
E37P (designed binder) SMEEEVEKAAKEYEKKKKEAIEKHLEKLKAKDKEAAPRFLKELEEAAKEYAKDEAKTMSEEEAKRRAKKYKEKVLLSELSEEEQKEIKEAEEKLVRTILKYVEEAAK | 0.49 nM
E54I (designed binder) SMEEEVEKAAKEYEKKKKEAIEKHLEKLKAKDKEAAERFLKELEEAAKEYAKDIAKTMSEEEAKRRAKKYKEKVLLSELSEEEQKEIKEAEEKLVRTILKYVEEAAK | 13.8 nM
L40M (designed binder) SMEEEVEKAAKEYEKKKKEAIEKHLEKLKAKDKEAAERFMKELEEAAKEYAKDEAKTMSEEEAKRRAKKYKEKVLLSELSEEEQKEIKEAEEKLVRTILKYVEEAAK | 0.593 nM
R38P (designed binder) SMEEEVEKAAKEYEKKKKEAIEKHLEKLKAKDKEAAEPFLKELEEAAKEYAKDEAKTMSEEEAKRRAKKYKEKVLLSELSEEEQKEIKEAEEKLVRTILKYVEEAAK | 11.4 nM
E5V (designed binder) SMEEVVEKAAKEYEKKKKEAIEKHLEKLKAKDKEAAERFLKELEEAAKEYAKDEAKTMSEEEAKRRAKKYKEKVLLSELSEEEQKEIKEAEEKLVRTILKYVEEAAK | 1.27 nM
K17C (designed binder) SMEEEVEKAAKEYEKKCKEAIEKHLEKLKAKDKEAAERFLKELEEAAKEYAKDEAKTMSEEEAKRRAKKYKEKVLLSELSEEEQKEIKEAEEKLVRTILKYVEEAAK | 2.73 nM
E92F (designed binder) SMEEEVEKAAKEYEKKKKEAIEKHLEKLKAKDKEAAERFLKELEEAAKEYAKDEAKTMSEEEAKRRAKKYKEKVLLSELSEEEQKEIKEAEFKLVRTILKYVEEAAK | 13.8 nM
D53Q (designed binder) SMEEEVEKAAKEYEKKKKEAIEKHLEKLKAKDKEAAERFLKELEEAAKEYAKQEAKTMSEEEAKRRAKKYKEKVLLSELSEEEQKEIKEAEEKLVRTILKYVEEAAK | 2.05 nM
E49H (designed binder) SMEEEVEKAAKEYEKKKKEAIEKHLEKLKAKDKEAAERFLKELEEAAKHYAKDEAKTMSEEEAKRRAKKYKEKVLLSELSEEEQKEIKEAEEKLVRTILKYVEEAAK | 10.4 nM
K69D (designed binder) SMEEEVEKAAKEYEKKKKEAIEKHLEKLKAKDKEAAERFLKELEEAAKEYAKDEAKTMSEEEAKRRAKDYKEKVLLSELSEEEQKEIKEAEEKLVRTILKYVEEAAK | 1.4 nM
V102S (designed binder) SMEEEVEKAAKEYEKKKKEAIEKHLEKLKAKDKEAAERFLKELEEAAKEYAKDEAKTMSEEEAKRRAKKYKEKVLLSELSEEEQKEIKEAEEKLVRTILKYSEEAAK | 0.446 nM
E44G (designed binder) SMEEEVEKAAKEYEKKKKEAIEKHLEKLKAKDKEAAERFLKELGEAAKEYAKDEAKTMSEEEAKRRAKKYKEKVLLSELSEEEQKEIKEAEEKLVRTILKYVEEAAK | 2.48 nM
E54M (designed binder) SMEEEVEKAAKEYEKKKKEAIEKHLEKLKAKDKEAAERFLKELEEAAKEYAKDMAKTMSEEEAKRRAKKYKEKVLLSELSEEEQKEIKEAEEKLVRTILKYVEEAAK | 2.48 nM
E103H (designed binder) SMEEEVEKAAKEYEKKKKEAIEKHLEKLKAKDKEAAERFLKELEEAAKEYAKDEAKTMSEEEAKRRAKKYKEKVLLSELSEEEQKEIKEAEEKLVRTILKYVHEAAK | 0.446 nM
K23R (designed binder) SMEEEVEKAAKEYEKKKKEAIERHLEKLKAKDKEAAERFLKELEEAAKEYAKDEAKTMSEEEAKRRAKKYKEKVLLSELSEEEQKEIKEAEEKLVRTILKYVEEAAK | 0.49 nM
K56E (designed binder) SMEEEVEKAAKEYEKKKKEAIEKHLEKLKAKDKEAAERFLKELEEAAKEYAKDEAETMSEEEAKRRAKKYKEKVLLSELSEEEQKEIKEAEEKLVRTILKYVEEAAK | 1.86 nM
Y50E (designed binder) SMEEEVEKAAKEYEKKKKEAIEKHLEKLKAKDKEAAERFLKELEEAAKEEAKDEAKTMSEEEAKRRAKKYKEKVLLSELSEEEQKEIKEAEEKLVRTILKYVEEAAK | 9.41 nM
